Km, kcat and kcat/Km data for two compounds are collected here from paper PMC8751089, “Photobiocatalytic Oxyfunctionalization with High Reaction Rate using a Baeyer–Villiger Monooxygenase from Burkholderia xenovorans in Metabolically Engineered Cyanobacteria” (ACS Catalysis, 2021).

The subject of one data set is T1, BVMOXeno.
T1 construct: gene BVMO_Xeno; purified enzyme, recombinant (E. coli); tag details only in supplement
The data set is described as follows: steady-state kinetics, NADPH consumption. Type of data set: biochemical, Paraburkholderia xenovorans. Conditions: co-substrates NADPH and O2; 50 mM Tris-HCl, pH 8, 25 °C. From the text: steady-state kinetics, NADPH consumption on BVMOXeno

The test system of a further data set is O=C1CCCCC1. The experiment in a line: purified protein. To be noted: co-substrates NADPH and O2, 50 mM Tris-HCl, pH 8, 25 °C.

Broadly, the Km is the concentration of substrate that gives half-maximal velocity. For the compound `O=C1CCCCC1` [1a, cyclohexanone], in the data set with BVMOXeno, the Km was found to be 22.7 ± 5 µM.
The term kcat denotes the number of substrate molecules converted per active site and unit of time at saturation. One may read the kcat/Km as the turnover number divided by the Michaelis constant. CHMOAcineto (Acinetobacter johnsonii): in the data set with O=C1CCCCC1, the Km was 266.6 ± 25.5 µM, the kcat was 4.54 ± 0.095 s⁻¹ and the kcat/Km stood at 17000 ± 1670 M⁻¹ s⁻¹.
